# Patent US20140303084
# Substitutions are numbered along the chain they refer to.
# Experiments:
# [1] = system: T1, RRAPGKLQCLASYCWLFWTG-Tle-A
# T1 sequence: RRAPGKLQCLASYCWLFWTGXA
# compound 5 = system: T2, compound 5
# T2 sequence: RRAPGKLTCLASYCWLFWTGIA
# RCAQSRLPWLVSYCWLFSPYGM = system: T3, RCAQSRLPWLVSYCWLFSPYGM
# T3 sequence: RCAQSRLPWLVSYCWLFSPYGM
# [2] = system: T4, CGGSGGRRAPGKLQCLASYCWLFWTGIAGGSGGC
# T4 sequence: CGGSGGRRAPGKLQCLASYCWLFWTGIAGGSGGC
# [3] = system: T5, SKQGRPISPDrRAAGKLTCLASYCWLFWTGI
# T5 sequence: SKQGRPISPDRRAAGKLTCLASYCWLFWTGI
# RRAPGKLQCLASYCWLFWTGFA = system: T6, RRAPGKLQCLASYCWLFWTGFA
# T6 sequence: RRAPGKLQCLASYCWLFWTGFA
# KKTCLASYCWLF = system: T7, KKTCLASYCWLF
# T7 sequence: KKTCLASYCWLF
# VSGTGRLTCVASYCWMFQLGIF = system: T8, VSGTGRLTCVASYCWMFQLGIF
# T8 sequence: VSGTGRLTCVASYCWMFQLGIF
# [4] = system: T9, SRIrTVSPGSrSASGKSTCLASYCWLFWTGIA
# T9 sequence: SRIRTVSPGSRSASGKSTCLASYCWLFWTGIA
# [5] = system: T10, RRAPGKLTCLASYCWLF WTAVG GQPYMLLAWR
# T10 sequence: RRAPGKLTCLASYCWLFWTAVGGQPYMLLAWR
# [6] = system: T11, RRAPGKLTCLASYCWLFWTGK(PEG2-Biotin)A
# T11 sequence: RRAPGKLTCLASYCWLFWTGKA
# [7] = system: T12, RRAPGKLCALASYCWLFWTGIA-CONH2
# T12 sequence: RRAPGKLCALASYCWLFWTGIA
# [8] = system: T13, SKQGRPISPDrRAAGKLTCLAS-NMeTyr-CWLFWTGIA
# T13 sequence: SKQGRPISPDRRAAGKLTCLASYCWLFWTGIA
# KLTCLA-HSe-YCWLF = system: T14, KLTCLA-HSe-YCWLF
# T14 sequence: KLTCLAXYCWLF
# Ac-K-k-MeLeu-TCLASYCWLF = system: T15, Ac-K-k-MeLeu-TCLASYCWLF
# T15 sequence: KKLTCLASYCWLF
# RGRSAKLRCLASYCWLFFGVIL = system: T16, RGRSAKLRCLASYCWLFFGVIL
# T16 sequence: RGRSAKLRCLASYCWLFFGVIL
# [9] = system: T17, RRAPGKLTCLASYCWLF WTGWS RDTASHASDS
# T17 sequence: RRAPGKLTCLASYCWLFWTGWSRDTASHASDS
# [10] = system: T18, RRAPGKLTCLASYCWLF WTGWA VLARVPVGWT
# T18 sequence: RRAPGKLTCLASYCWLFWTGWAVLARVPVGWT
# [11] = system: T19, Pra-PEG4-PRIrTVGPGSrSASGKSTCLASYCWLFWTGIA
# T19 sequence: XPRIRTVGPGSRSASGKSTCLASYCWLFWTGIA
# RRAPGKLTClASYCWLFWTGIA [12] = system: T20, RRAPGKLTClASYCWLFWTGIA
# T20 sequence: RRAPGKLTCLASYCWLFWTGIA
# RRAPGKLtCLASYCWLFWTGIA [13] = system: T21, RRAPGKLtCLASYCWLFWTGIA
# T21 sequence: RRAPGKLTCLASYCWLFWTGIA
# KLTCLASYCWLA = system: T22, KLTCLASYCWLA
# T22 sequence: KLTCLASYCWLA
# [14] = system: T23, RRAPGKCTALASYCWLFWTGIA-CONH2
# T23 sequence: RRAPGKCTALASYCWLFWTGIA
# [15] = system: T24, PRTTANRRSS RRAPA KLTCLASYCWLFWTGIA
# T24 sequence: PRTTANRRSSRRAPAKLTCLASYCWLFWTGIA
# [16] = system: T25, PRIRTVGPGSRSASGKLSCLASYCWLFWTGIA
# T25 sequence: T9 sequence with S1P, S7G, S17L, T18S
# [17] = system: T26, RRAPG-MeLys-LTCLASYCWLFWTGIA
# T26 sequence: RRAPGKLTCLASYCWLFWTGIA
# KLT-Glu-LASY-Orn-WLF = system: T27, KLT-Glu-LASY-Orn-WLF
# T27 sequence: KLTELASYXWLF
# [18] = system: T28, rrapgkltclasycwlfwtgia (inverso)
# T28 sequence: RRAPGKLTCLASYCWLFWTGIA
# [19] = system: T29, TSGPFGFGGS SRAQG KLTCLASYCWLFWTGIA
# T29 sequence: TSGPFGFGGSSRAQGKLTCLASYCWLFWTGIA
# [20] = system: T30, RRAPGKLTCLASYCWLF YTGIA HGHPMEHRKS
# T30 sequence: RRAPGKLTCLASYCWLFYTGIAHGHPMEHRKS
# RRAPGKLQCLASYCWLFWTGLA = system: T31, RRAPGKLQCLASYCWLFWTGLA
# T31 sequence: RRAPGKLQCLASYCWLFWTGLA
# RRAPGKLTcLASYCWLFWTGIA [21] = system: T32, RRAPGKLTcLASYCWLFWTGIA
# T32 sequence: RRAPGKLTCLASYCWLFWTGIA
# RRAKGKLQCLASYCWLFWTGIA = system: T33, RRAKGKLQCLASYCWLFWTGIA
# T33 sequence: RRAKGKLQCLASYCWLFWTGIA
# [22] = system: T34, RRAPGKLTCLASYCWLF WTGIA RWPSHRSGPS
# T34 sequence: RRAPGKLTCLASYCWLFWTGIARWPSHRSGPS
# RRAPGKLQCLASYCWLFWTGI = system: T35, RRAPGKLQCLASYCWLFWTGI
# T35 sequence: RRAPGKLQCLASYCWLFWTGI
# [23] = system: T36, PRIRSVGPGSRSASGKLTCLASYCWLFWTGIA
# T36 sequence: T9 sequence with S1P, T5S, S7G, S17L
# AQLRRKLTCLASYCWLFGFFSP = system: T37, AQLRRKLTCLASYCWLFGFFSP
# T37 sequence: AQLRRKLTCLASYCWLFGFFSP
# [24] = system: T38, PEG16-Lys(PEG2-Biotin)-PEG16-rRAPGKLTCLASYCWLFWTGIA
# T38 sequence: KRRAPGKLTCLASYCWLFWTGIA
# [25] = system: T39, AIGTWFLWCYSALCTLKGPARR (retro)
# T39 sequence: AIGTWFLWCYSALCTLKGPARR
# [26] = system: T40, PSGWAGWAPG RREPG KLTCLASYCWLFWTGIA
# T40 sequence: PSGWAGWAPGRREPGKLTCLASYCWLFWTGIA
# [27] = system: T41, PRIRTVGPGSRSASGKLTCIASYCWLFWTGIA
# T41 sequence: T9 sequence with S1P, S7G, S17L, L20I
# [28] = system: T42, PARGKERELM RRAPG KLTCLASYCWLFWTGIA
# T42 sequence: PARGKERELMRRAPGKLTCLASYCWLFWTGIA
# [29] = system: T43, RRAPGCLTALASYCWLFWTGIA-COOH
# T43 sequence: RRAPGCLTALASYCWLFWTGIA
# [30] = system: T44, PTDTGPVISG LRAPG KLTCLASYCWLFWTGIA
# T44 sequence: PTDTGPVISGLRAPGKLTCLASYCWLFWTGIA
# KLTCLASYCWLf = system: T45, KLTCLASYCWLf
# T45 sequence: KLTCLASYCWLF
# [31] = system: T46, RRAPGKLTCLASYCWLF ATGVT FPQIWAIPSP
# T46 sequence: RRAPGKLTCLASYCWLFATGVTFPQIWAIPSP
substance,measurement,setting,value
human Factor IXa,"Vmax, FXa generation assay",[1],> 2
same,KM (nM) of hFIXa for FX,compound 5,11 nM
same,"Vmax, FXa generation assay with hFIXa",compound 5,> 2
same,"kcat (min^-1) of hFIXa for FX, compound at 1 µM",compound 5,0.0179 min⁻¹
same,Δ KM (Km compound/Km buffer),compound 5,0.14
same,"Δ kM of FIXa, FXa generation assay",compound 5,0.14
same,"Δ kcat of FIXa, FXa generation assay",compound 5,199 fold
same,"Vmax, FXa generation assay",RCAQSRLPWLVSYCWLFSPYGM,> 1.5
same,"Vmax, FXa generation assay; (++) means 1-2",[2],(++)
same,"Vmax, FXa generation assay",[3],> 3
same,"Vmax, FXa generation assay",RRAPGKLQCLASYCWLFWTGFA,> 2
same,"Vmax, FXa generation assay; (++) means 1-2",KKTCLASYCWLF,(++)
same,"Vmax, FXa generation assay; (++) means 1-2",VSGTGRLTCVASYCWMFQLGIF,(++)
same,"Vmax, FXa generation assay",[4],> 3
same,"Vmax, FXa generation assay; (++) means 1-2",[5],(++)
same,"Vmax, FXa generation assay; (++) means 1-2",[6],(++)
same,"Vmax, FXa generation assay",[7],> 2
same,"Vmax, FXa generation assay",[8],> 0.3
same,"Vmax, FXa generation assay; (++) means 1-2",KLTCLA-HSe-YCWLF,(++)
same,"Vmax, FXa generation assay",Ac-K-k-MeLeu-TCLASYCWLF,> 2
same,"Vmax, FXa generation assay",RGRSAKLRCLASYCWLFFGVIL,> 2
same,"Vmax, FXa generation assay",[9],> 2
same,"Vmax, FXa generation assay",[10],> 2
same,"Vmax, FXa generation assay; (++) means 1-2",[11],(++)
same,"Vmax, FXa generation assay; (++) means 1-2",RRAPGKLTClASYCWLFWTGIA [12],(++)
same,"Vmax, FXa generation assay; (++) means 1-2",RRAPGKLtCLASYCWLFWTGIA [13],(++)
same,"Vmax, FXa generation assay",KLTCLASYCWLA,> 3
same,"Vmax, FXa generation assay",[14],> 2
same,"Vmax, FXa generation assay",[15],> 3
same,"Vmax, FXa generation assay",[16],> 3
same,"Vmax, FXa generation assay; (++) means 1-2",[17],(++)
same,"Vmax, FXa generation assay; (++) means 1-2",KLT-Glu-LASY-Orn-WLF,(++)
same,"Vmax, FXa generation assay",[18],> 2
same,"Vmax, FXa generation assay; (++) means 1-2",[19],(++)
same,"Vmax, FXa generation assay",[20],> 3
same,"Vmax, FXa generation assay",RRAPGKLQCLASYCWLFWTGLA,> 2
same,"Vmax, FXa generation assay; (++) means 1-2",RRAPGKLTcLASYCWLFWTGIA [21],(++)
same,"Vmax, FXa generation assay; (++) means 1-2",RRAKGKLQCLASYCWLFWTGIA,(++)
same,"Vmax, FXa generation assay; (++) means 1-2",[22],(++)
same,"Vmax, FXa generation assay",RRAPGKLQCLASYCWLFWTGI,> 2
same,"Vmax, FXa generation assay",[23],> 3
same,"Vmax, FXa generation assay; (++) means 1-2",AQLRRKLTCLASYCWLFGFFSP,(++)
same,"Vmax, FXa generation assay",[24],> 3
same,"Vmax, FXa generation assay; (++) means 1-2",[25],(++)
same,"Vmax, FXa generation assay",[26],> 2
same,"Vmax, FXa generation assay",[27],> 2
same,"Vmax, FXa generation assay",[28],> 3
same,"Vmax, FXa generation assay",[29],> 2
same,"Vmax, FXa generation assay; (++) means 1-2",[30],(++)
same,"Vmax, FXa generation assay",KLTCLASYCWLf,> 3
same,"Vmax, FXa generation assay",[31],> 3
